Assay results from patent publication US20200376136A1 (Regeneron, published 2020).

T1: human six-transmembrane epithelial antigen of prostate 2 (STEAP2) (human, UniProt Q8NFT2 1-490)
T1 construct: also called hSTEAP2
T1 sequence: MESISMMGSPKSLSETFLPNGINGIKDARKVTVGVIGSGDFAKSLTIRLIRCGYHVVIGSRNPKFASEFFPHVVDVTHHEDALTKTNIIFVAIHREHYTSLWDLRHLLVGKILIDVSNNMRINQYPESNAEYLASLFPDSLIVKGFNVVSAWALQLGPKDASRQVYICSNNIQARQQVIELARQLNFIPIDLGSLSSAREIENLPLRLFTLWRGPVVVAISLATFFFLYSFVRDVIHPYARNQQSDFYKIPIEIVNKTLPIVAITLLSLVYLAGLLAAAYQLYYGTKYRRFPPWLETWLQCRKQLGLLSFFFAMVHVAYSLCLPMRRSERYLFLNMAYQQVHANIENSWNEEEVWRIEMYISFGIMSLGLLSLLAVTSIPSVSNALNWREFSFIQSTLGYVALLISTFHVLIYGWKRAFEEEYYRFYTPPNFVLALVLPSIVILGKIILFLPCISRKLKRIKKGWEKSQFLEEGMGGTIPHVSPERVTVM

B1: H1H11162N (antibody, human IgG1, V domains shown)
VH: QVQLQQSGPGLVKPSQTLSLTCAISGDSVSSNRAAWNWIRQSPSRGLQWLGRTYYRSKWYNDYAVSLRSRITINPVTSKNQVALHMNSVTPEDTAVYYCARAGIVVVPGPETFYYYDHGLDVWGQGTTVTVSS
VL: DIQMTQSPSSLSASVGDRVTITCRASQSIRSYLNWYQQKPGKAPELLIHAASSLQSGVPSRFSGSGSGTDFTLTISSLQPEDFASYYCQQSYSAPPITFGQGTRLEIK
B2: H1H11164N (antibody, human IgG1, V domains shown)
VH: QVQLQQSGPGLVKPSQTLSLTCVISGDSVSTNSAAWNWIRQSPSRGLEWLGRTYYRSKWYNDYAVSVRSRITINPVTSKNQVALHLNSVTPEDTAVYYCARAGIVVVPGPETYYYYYHGLDVWGQGTTVTVSS
VL: DIQMTQSPSSLSASVGDRVTITCRASQNIRSYLNWYQQKPGKAPKLLIHVASSLQSGVPSRFSGSGSGTDFTLTISSLQPEDFATYYCQQSYSTPPITFGHGTRLEIK
B3: H1H11880P (antibody, human IgG1, V domains shown)
VH: EVQLVESGGGLVQPGGSLRLSCAASGFTFSTYAMHWVRQAPGKGLQHVSTISTNGVNTYYADSVKGRFTISRDNSKSTLYLQMGSLRAEDMAVYYCARDKDFWSGYFDYWGQGTLVTVSS
VL: EIVMTQSPGTLSVSPGERATLSCRASQSVSSNLAWYHQKPGQAPRLLIYGASTRATGFPARFSGSGSGTEFTLTISSLQSEDFAAYYCQQYNNWPITFGQGTRLEIK
B4: H1H11894P2 (antibody, human IgG1, V domains shown)
VH: QVQLVQSGAEVKKPGSSVKVSCRASGGTFSRFAIGWVRQAPGQGLEWMGGIIPIFGTASYAQKFQGRVTITTDESTSTAYMELRSLRSEDTAVYYCTREGITGRGYYYYGMDVWGQGTTVTVSS
VL: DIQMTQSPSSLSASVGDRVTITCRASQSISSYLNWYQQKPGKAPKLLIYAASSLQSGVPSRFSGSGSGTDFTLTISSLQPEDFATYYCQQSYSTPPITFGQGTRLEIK
B5: H1H7814N (antibody, human IgG1, V domains shown)
VH: QVQLVESGGGVVQPGRSLRLSCVASGFTISSYGMNWVRQAPGKGLEWVAVISYDGGNKYSVDSVKGRFTISRDNSKNTLYLQMNSLRAEDSAVYYCARGRYFDLWGRGTLVTVSS
VL: DIQMTQSPSTLSASVGDRVTITCRASQSISSWLAWYQQKPGRAPNLLISKASSLKSGVPSRFSGSGSGTEFTLTVSSLQPDDFATYYCQQYYSYSYTFGQGTKLEIK
B6: H1H7810N (antibody, human IgG1, V domains shown)
VH: QVQLVESGGGVVQPGRSLRLSCAVSGFTSSTYGMNWVRQAPGKGLEWVAVISYDGSNKYYADSVKGRFTISRDNSKNTLYLQMNSLRPEDTAVYYCARGRYFDLWGRGTLVTVSS
VL: DIQMTQSPSTLSASVGDRVTITCRASQIISSWLAWYQQKPGKAPKLLIYKASSLASGVPSRFSGSGSGTEFTLTISSLQPDDFATYYCQQYKSYSYTFGQGTKLEIK
B7: H1H7811N (antibody, human IgG1, V domains shown)
VH: QVQLVESGGGVVQPGRSLRLSCAVSGFTSSTYGMNWVRQAPGKGLEWVAVISFDGSNKYYADSVKGRFTISRDNSKNTLYLQMSSLRPEDTAVYYCARGRYFDLWGRGTLVTVSS
VL: DTQMTQSPSTLSASVGDRVTITCRASQIISSWLAWYQQKPGKAPKLLIYKASSLASGVPSRFSGSGSGTEFTLTISSLQPDDFATYYCQQYKSYSYTFGQGTNLEIK
B8: H1H11878P (antibody, human IgG1, V domains shown)
VH: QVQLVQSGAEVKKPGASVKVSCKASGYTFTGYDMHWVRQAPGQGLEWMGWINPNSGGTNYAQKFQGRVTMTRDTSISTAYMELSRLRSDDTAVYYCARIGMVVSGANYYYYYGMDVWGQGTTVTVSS
VL: AIQMTQSPSSLSAYVGDRVIITCRASQGIRNDLGWYQQKPGKAPKLLIYAASSLQSGVPSRFSGSRSGTVFTLTISSLQPEDFATYYCLQDYNYPWTFGQGTKVEIK
B9: H1H11897P2 (antibody, human IgG1, V domains shown)
VH: EVQLVESGGGLVQPGGSLRLSCAVSGFTFSSYAMSWVRQAPGKGLEWVSVISGSGDFTYHADSVKGRFTISRDNSKSTLYLQLNSLRAEDTAVYYCAKKGLRYFDWYDYWGQGTLVTVSS
VL: not shown
B10: H1H11896P2 (antibody, human IgG1, V domains shown)
VH: EVQLVESGGGLVQPGGSLRLSCAASRFTFSSYAMSWVRQAPGKGLEWVSLISGSGGRTWYADSVKGRFTISRDNSKNTLFLQMNSLRAEDTAVYYCAKEGGIFGVVTFFDYWGQGTLVTVSS
VL: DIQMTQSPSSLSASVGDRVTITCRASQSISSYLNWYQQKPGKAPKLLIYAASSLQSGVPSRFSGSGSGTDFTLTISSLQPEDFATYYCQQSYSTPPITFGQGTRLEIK
B11: H1H11892P2 (antibody, human IgG1, V domains shown)
VH: EVQLVESGGGLVQPGGSLRLSCATSGFTFSNYDFHWVRQIRGQGLEWVSTIDTAGDTYFSGSVKGRFTISRDTAKTSLYLQMNSLRAGDTAVYYCARAPRYDSTGNYYNYYSYFGLDVWGQGTTVTVSS
VL: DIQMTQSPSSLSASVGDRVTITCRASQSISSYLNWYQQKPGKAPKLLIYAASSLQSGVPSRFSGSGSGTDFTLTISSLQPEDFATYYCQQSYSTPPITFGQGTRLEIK
B12: H1H11893P2 (antibody, human IgG1, V domains shown)
VH: QVQLVQSGAEVKKPGASVKVSCKVSGYTLTELSMHWVRQAPGKGLEWMGSFDPEDDETIYAQKFQGRVTMTEDTSTDTAYMDLSSLRSEDTAVYYCSIEEVRWRGSDYYYVMDVWGQGTTVTVSS
VL: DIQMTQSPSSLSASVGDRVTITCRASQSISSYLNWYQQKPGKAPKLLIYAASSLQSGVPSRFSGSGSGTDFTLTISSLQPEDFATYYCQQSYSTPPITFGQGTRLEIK
B13: H1H11163N (antibody, human IgG1, V domains shown)
VH: QVQLQQSGPGLVKPSQALSLTCAISGDSVSSNSAAWNWIRQSPSRGLEWLGRTYYRSKWYNDYAVSVKSRITINPDTSKNHFSLHLNSMTPEDTAVYYCARARIVVVPGPEVYYYYYYDMDVWGQGTTVTVSS
VL: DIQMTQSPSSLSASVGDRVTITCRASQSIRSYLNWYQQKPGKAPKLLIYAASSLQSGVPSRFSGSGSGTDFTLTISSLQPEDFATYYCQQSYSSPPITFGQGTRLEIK
B14: H1H11243N (antibody, human IgG1, V domains shown)
VH: QVQLQQSGPGLVKPSQTLSLTCAISGDSVSSNSAAWNWIRQSPSRGLEWLGRTYYRSKWYNDYAVSVKSRITINPDTSKNQFSLHLNSVTPEDTAVYYCARAGIVVVPGPDIYYYYYYGMDVWGQGTTVTVSS
VL: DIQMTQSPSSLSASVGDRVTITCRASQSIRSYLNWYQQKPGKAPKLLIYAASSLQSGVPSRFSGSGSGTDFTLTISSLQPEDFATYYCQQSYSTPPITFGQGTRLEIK
B15: H1H11895P2 (antibody, human IgG1, V domains shown)
VH: QVQLQESGPGLVKPSETLSLTCTVSGGSISIYYWTWIRQPPGKGLEWIGNIFYSGSTNYNPSLKSRVTISVDTSKNQFSLKLSSVTAADTAVYYCARERLGRYDAFDNWGQGTMVTVSS
VL: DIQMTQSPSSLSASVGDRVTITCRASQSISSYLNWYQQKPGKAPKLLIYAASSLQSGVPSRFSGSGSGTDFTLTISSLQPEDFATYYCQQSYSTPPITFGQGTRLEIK
B16: H1H7972P (antibody, human IgG1, V domains shown)
VH: QVQLQQSGPGLVKPSQTLSLTCAISGDSVSSNSAAWNWIRQSPSRGLEWLGRTYYRSKWYNDYVVSVKSRIIFNPDTSKNQFSLQLNSVTPEDTAVYYCARVRQDYRSGPFDYWGQGTLVTVSS
VL: EIVMTQSPVTLSVSPGERATLSCWASQSVSSSLAWYQQKPGQAPRLLIYGASTRATGIPARFSGSGSGTGFTLTISSLQSEDFAVYYCQQYNNWPFTFGPGTKVDIK
B17: H1H11888P2 (antibody, human IgG1, V domains shown)
VH: QVQLQESGPGLVKPSQTLSLTCTVSGYSINSGGHFWSWIRQHPGKGLEWIGDIYYSGNTYSIPSLKRRISMSVDTSKNHFSLKLISVTAADTAIYYCARNSGGYLDAFDIWGQGTMVTVSS
VL: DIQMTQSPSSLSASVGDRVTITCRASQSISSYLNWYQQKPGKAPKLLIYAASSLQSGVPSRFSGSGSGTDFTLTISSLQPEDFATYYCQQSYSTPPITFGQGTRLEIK
B18: BSSTEAP2/CD3-011 (bispecific antibody, V domains shown)
VH 1: QVQLVESGGGVVQPGRSLGLSCAASGFTFSSYGMHWVRQAPGKGLEWVAVIWYDGSNKYYVDSVKGRFTISRDNSKNTLYLQMNSLRAEDTAVYYCAREGLRFLENYYYYYGMDVWGQGTTVTVSS
VH 2: EVQLVQSGGGLVQPGRSLRLSCAASGFTFADYTMHWVRQTPGKGLEWVSGISWNSGSKDYADSVKGRFTISRDNAKNSLYLQMNSLRTEDTALYYCAKYGSGYGRYFFYAMDVWGQGTTVTVSS
VL: EIVLTQSPGTLSLSPGERATLSCRASQSISSTYLAWYQQRPGQAPRLLIYGASSRATGIPDRFSGSGSGTDFTLTISRLEPEDFAVYYCQQYGTSPYTFGQGTKLEIK
notes: also called BSSTEAP2/CD3-0011
B19: H1H7809N (antibody, human IgG1, V domains shown)
VH: QVQLVESGGGVVQPGRSLGLSCAASGFTFSSYGMHWVRQAPGKGLEWVAVIWYDGSNKYYVDSVKGRFTISRDNSKNTLYLQMNSLRAEDTAVYYCAREGLRFLENYYYYYGMDVWGQGTTVTVSS
VL: EIVLTQSPGTLSLSPGERATLSCRASQSISSTYLAWYQQRPGQAPRLLIYGASSRATGIPDRFSGSGSGTDFTLTISRLEPEDFAVYYCQQYGTSPYTFGQGTKLEIK

Experiments:
[1] = molecular target: T1, human six-transmembrane epithelial …; experiment: FACS on C4-2 cells (endogenous STEAP2), MFI fold above unstained, average at 100-300 nM antibody
Method: (§1) Briefly, 1×10⁵ cells were incubated with 10 μg/ml of anti STEAP2 antibodies, or isotype control antibodies for 30 min on ice in antibody dilution buffer. Following one wash with antibody dilution buffer, cells were incubated with 10 μg/ml of PE conjugated anti-human or antimouse Fc secondary antibodies for 30 min on ice. Following one additional wash, samples were incubated with Cytofix (1% formaldehyde) for 20 minutes. After one final wash, samples were filtered through a Pall 96 well filtration block, run on a Hypercyt® cytometer and analyzed in ForeCyt™ (IntelliCyt, Albuquerque, N. Mex.). Mean fluorescence intensities (MFI) were expressed as fold change above unstained levels (background). The average fold above background at antibody concentrations of 100-300 nM were determined.

[2] = molecular target: T1, human six-transmembrane epithelial …; experiment: FACS on HEK293 cells (low STEAP2), MFI fold above unstained, average at 100-300 nM antibody
Method: as §1

[3] = molecular target: T1, human six-transmembrane epithelial …; experiment: FACS titration on C4-2 cells (endogenous STEAP2), 4-parameter fit
Method: as §1

human CD3 [4] = molecular target: T2, human CD3 (human, UniProt P07766 23-207; P04234 22-171); experiment: cell-based or functional assay
human CD3 [5] = molecular target: T2, human CD3; experiment: FACS titration on Jurkat cells (human CD3)
Method: Flow cytometric analysis was utilized to determine binding of STEAP2×CD3 bispecific antibodies to Jurkat, PC3_STEAP2/1 chimeric and cynomolgus T cells, followed by detection with a phycoerythrin (PE)-labeled anti-human IgG antibody. […] After incubation, the cells were washed twice with cold PBS containing 1% filtered FBS and a PE-conjugated anti-human secondary antibody was added to the cells and incubated for an additional 30 minutes. Wells containing no antibody or secondary antibody only were used as a control. After incubation, cells were washed, re-suspended in 200 μL cold PBS containing 1% filtered FBS and analyzed by flow cytometry on a BD FACS Canto II.

T2 sequence (P07766 23-207 limits assumed, chain 1 of 2): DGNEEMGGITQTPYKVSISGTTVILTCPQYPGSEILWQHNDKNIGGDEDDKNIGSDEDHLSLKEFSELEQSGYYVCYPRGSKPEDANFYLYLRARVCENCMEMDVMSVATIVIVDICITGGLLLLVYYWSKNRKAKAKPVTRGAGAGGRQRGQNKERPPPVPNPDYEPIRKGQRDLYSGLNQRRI
T2 sequence (P04234 22-171 limits assumed, chain 2 of 2): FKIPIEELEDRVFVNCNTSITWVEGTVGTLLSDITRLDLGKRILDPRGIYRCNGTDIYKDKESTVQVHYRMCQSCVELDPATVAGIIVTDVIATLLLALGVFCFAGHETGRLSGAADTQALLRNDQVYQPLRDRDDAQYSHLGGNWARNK

| Binder | Avg F.A.B (fold above background) [1] [fold above background] | Avg F.A.B (fold above background) [2] [fold above background] | EC50 [3] [nM] | hPBMC Proliferation [M] (EC50, with anti-CD28) (human CD3 [4]) | EC50 (human CD3 [5]) [nM] |
| --- | --- | --- | --- | --- | --- |
| B1 | 104 | 10 | 1 |  |  |
| B2 | 117 | 10 | 2 |  |  |
| B3 | 6 | 7 | 5 |  |  |
| B4 | 7 | 4 |  |  |  |
| B5 | 96 | 2 | 4 |  |  |
| B6 | 26 | 3 |  |  |  |
| B7 | 65 | 5 | > 50 |  |  |
| B8 | 27 | 5 | > 50 |  |  |
| B9 | 29 | 16 | > 50 |  |  |
| B10 | 6 | 7 | 21 |  |  |
| B11 | 4 | 3 |  |  |  |
| B12 | 9 | 3 | 21 |  |  |
| B13 | 90 | 6 | 3 |  |  |
| B14 | 41 | 3 |  |  |  |
| B15 | 6 | 4 | 16 |  |  |
| B16 | 119 | 4 | 9 |  |  |
| B17 | 6 | 9 | 3 |  |  |
| B18 |  |  |  | 8.62e-12 | 8.63 |
| B19 | 89 | 31 | > 50 |  |  |
